T1: WUSCHEL (His-WUS) (UniProt Q9SB92 1-292)
T1 sequence: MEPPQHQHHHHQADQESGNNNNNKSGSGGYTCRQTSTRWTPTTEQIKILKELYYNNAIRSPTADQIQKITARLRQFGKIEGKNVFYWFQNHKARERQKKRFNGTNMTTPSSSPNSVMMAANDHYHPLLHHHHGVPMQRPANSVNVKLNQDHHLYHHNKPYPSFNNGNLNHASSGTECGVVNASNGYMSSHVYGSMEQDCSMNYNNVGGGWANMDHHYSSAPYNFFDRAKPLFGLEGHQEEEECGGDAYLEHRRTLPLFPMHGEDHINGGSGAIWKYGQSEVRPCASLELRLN

B1: KAN1 1050 oligo (dsDNA)
DNA 1: TCTTACACTAATACTATATTTACACATG
DNA 2: CATGTGTAAATATAGTATTAGTGTAAGA
B2: KAN1 -1100 oligo (dsDNA)
DNA 1: TACTGATATTTAATGTATATTTATCTCT
DNA 2: AGAGATAAATATACATTAAATATCAGTA

Target: T1, WUSCHEL (His-WUS)
Experiment: EMSA; supershift with anti-WUS antibody; EMSA conditions not given; as in Yadav et al 2011
Conditions: protein: recombinant; tags: His; chain copies: 2; (radiolabeled)

Row | Binder | binding result
1 | B1 | binds
2 | B2 | binds
